Test results taken from patent US20210054048A1.

Molecular target: alcohol dehydrogenase (ADH)
Experiment: cell-based or functional assay

CryS96 (αB-crystallin peptide fused with ELP S96)
decrease in ADH aggregation (optical density at 360 nm, 48° C., 2 h): 61%
